B1: hNoggin (protein)
chain: QHYLHIRPAPSDNLPLVDLIEHPDPIFDPKEKDLNETLLRSLLGGHYDPGFMATSPPEDRPGGGGGAAGGAEDLAELDQLLRQRPSGAMPSEIKGLEFSEGLAQGKKQRLSKKLRRKLQMWLWSQTFCPVLYAWNDLGSRFWPRYVKVGSCFSKRSCSVPEGMVCKPSKSVHLTVLRWRCQRRGGQRCGWIPIQYPIISECKCSC
B2: C8E7: E7 linked to C8, hetero-dimer VHH bihead (protein)
chain: EVQLVESGGGLVQAGGSLRLSCAASGRTFRINDMGWYRQAPGKSRDMVARITSGGNTNYADSVKGRFTISRDNAKNTVYLQMNSLKPEDTAVYYCNADGLRFDSTRYRPFDSWGQGTQVTVSSGGGGSGGGGSEVQLVESGGGLVQAGGSLRLSCAASGSIRGFVAMAWYRQAPGKQREWVATVTNGGTLYGDSVKGRFTGSRDNAKNTVYLQMNSLKPEDTAVYYCALRQIGASGYDYWGQGTQVTVSS

What was measured:
HT29 cells = experiment: Chemosensitivity / cell viability (Presto Blue); assay type: cell-based, human
Procedure: We wanted to determine whether this effect could be attributable to BMP4 that is being secreted by the cancer cells, and if therefore, could be inhibited by our BMP4-specific VHHs. A panel of colorectal cancer cells was tested for the presence of active BMPs in their conditioned media (FIG. 28A). To that end, the C2C12 cells were cultured with supernatants from different cancer cell lines. When normalized for the BMPs present in normal fetal calf serum, we found a high variability in BRE-luciferase activity across cell lines. […] One of those cell lines, HT29, was used to test the effect of BMP4 inhibition in terms of proliferation. No effect was observed when cultured with the VHHs or Noggin alone (data not shown).
HT29 cells were plated in 96-well plates at a density of 10,000 cells per well. […] The VHHs or Noggin were added at the same time at a concentration of 500 ng/ml. Cell viability was measured by adding the Presto Blue Reagent (Invitrogen) for 2 hours at 37° C., after which absorbance was measured at […].

BMP7 = molecular target: T1, BMP7 (Homo sapiens, UniProt P18075); experiment: BMP activity luciferase reporter assay (BRE-luciferase, ID1 promoter) in C2C12 cells; assay type: cell-based, mouse; details: 200 ng/ml hBMP7, 16 h; 500 ng/ml
T1 sequence (P18075 293-431): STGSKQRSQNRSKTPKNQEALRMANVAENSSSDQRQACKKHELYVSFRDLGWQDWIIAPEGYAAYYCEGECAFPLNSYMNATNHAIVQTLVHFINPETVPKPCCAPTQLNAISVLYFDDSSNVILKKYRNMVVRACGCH
Procedure: One of the most studied BMP target genes is the Inhibitor of Differentiation 1 (ID1). This is an immediate early gene that is activated by binding of the phosphorylated SMADs to its promoter region (López-Rovira et al., 2002). Thus, we employed the BMP-responsive C2C12 cells, which are stably transfected with the BRE-luciferase vector containing the BMP-Responsive-Element (the mouse ID1 promoter) cloned into the pGL3 luciferase vector (Zilberberg 2007). […] C2C12 cells were treated with the different BMPs with or without our VHHs or human Noggin at a concentration of 5 μg/ml. Luciferase activity was measured after 16 hours incubation. Most of the transcriptional data is in concordance with the results obtained with the phosphorylation of SMAD1/5/8.
C2C12 cells were plated in 96-well plates at 5×10^3 cells/well and cells were allowed to attach overnight. 100 μl of DMEM with 0.1% BSA were added in each well. VHH antibodies and human Fc-Noggin at the indicated concentrations were added at the same time. Wells with unstimulated cells were added as controls. Cells were treated in triplicate with the BMPs at the indicated concentrations for 16 hours. Luciferase activity was measured by adding 100 μl of luciferase substrate solution from the Bright-Glo™ Luciferase Assay System (Promega Benelux, Leiden, The Netherlands). After 3 minutes of incubation, luciferase activity was measured with Synergy HT Multi-Mode Microplate Reader (Biotek, Winooski, Vt., United States). Luciferase values were normalized to background activity (activity of wells with no cells) and represented as ratio to the activity of BMP-stimulated cells.
C2C12 cells were cultured in 96-well plates at 5×10^3 cells/well. […]

BMP2 = molecular target: T2, BMP2 (Homo sapiens, UniProt P12643); experiment: Phosphorylation of SMAD1/5/8 in EPC2-hTERT cells (western blot); assay type: cell-based; details: 100 ng/ml BMP2, 4 hours; indicated concentrations
T2 sequence (P12643 283-396): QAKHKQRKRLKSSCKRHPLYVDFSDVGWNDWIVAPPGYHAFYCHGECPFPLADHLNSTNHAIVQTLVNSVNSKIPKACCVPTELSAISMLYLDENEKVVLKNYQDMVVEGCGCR
Procedure: To detect phosphorylation of SMAD1/5/8 in vitro, EPC2-hTERTs were cultured in 24-well plates and activated with 100 ng/ml of BMP2, BMP4, BMP5, BMP6 or BMP7 (R&D Systems) for 4 hours with or without VHH at the indicated concentrations. After activation, each well was washed twice with ice-cold PBS and lysed with 100 μl M-PER lysis buffer (Sigma-Aldrich, MO, United States) containing Halt Protease and Phosphatase Inhibitor Cocktail (Thermo Scientific, Landsmeer, The Netherlands). Cell debris were pelleted and supernatant was collected. 15 μg of protein was then separated by 10% SDS-PAGE and transferred onto a PVDF membrane (Millipore, Amsterdam, The Netherlands). The blots were then blocked with 5% milk in Tris-buffered saline supplemented with 0.1% Tween-20 (TBST) for 1 hour at room temperature and washed in TBST before overnight incubation at 4° C. with antiphospho-SMAD1/5/8 (Cell Signalling), anti-βactin (Santa Cruz) or anti-GAPDH (Millipore) in 5% Bovine Serum Albumin (BSA). Blots were then washed with TBST and incubated for 1 hour at room temperature in 1:2000 horseradish peroxidase—conjugated secondary antibody in TBST. After a final wash with TBST, blots were incubated for 5 minutes in LumiGlow (BIOKE, Leiden, The Netherlands) and then chemiluminescence was detected using a Fuji LAS4000 illuminator (Fujifilm Medical Systems, Stamford, Conn.). Protein was quantitated with Image). […]

Molecule | chemosensitivity (cell viability) in combination with Carboplatin, 5′FU or Oxaliplatin (HT29 cells; 500 ng/ml, 48 hours) | effect on HT29 proliferation, alone (HT29 cells; without chemotherapy (data not shown)) | inhibition of BMP-7 signals, comparison of inhibitors (BMP7) | inhibition of BMP2 signaling (pSMAD1/5/8), dimer compared to monomer (BMP2)
B1 | not as effective as observed for C4C4 or C8C8 | No effect | inhibited | –
B2 | – | – | – | better at inhibiting both BMP2 and BMP4 as compared to the E7 monomer
